Source: US20020137213A1 (published 2002)

T1: coxsackie adenovirus receptor (CAR), human, on HeLa cells (human, UniProt P78310 20-365)
T1 sequence: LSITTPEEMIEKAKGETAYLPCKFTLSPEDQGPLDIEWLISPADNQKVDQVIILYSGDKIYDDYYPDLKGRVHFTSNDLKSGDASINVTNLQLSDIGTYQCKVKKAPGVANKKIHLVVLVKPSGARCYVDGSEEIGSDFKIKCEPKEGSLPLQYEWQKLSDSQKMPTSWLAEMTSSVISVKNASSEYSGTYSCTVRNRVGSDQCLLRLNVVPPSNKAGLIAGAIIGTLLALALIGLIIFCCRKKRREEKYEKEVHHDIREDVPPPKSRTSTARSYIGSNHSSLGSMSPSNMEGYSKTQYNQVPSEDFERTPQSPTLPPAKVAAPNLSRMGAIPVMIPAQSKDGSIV

B1: KO4+5 mutant Ad5 fiber protein (ΔG509, K510, ΔG538, T539) (other)
chain: MKRARPSEDTFNPVYPYDTETGPPTVPFLTPPFVSPNGFQESPPGVLSLRLSEPLVTSNGMLALKMGNGLSLDEAGNLTSQNVTTVSPPLKKTKSNINLEISAPLTVTSEALTVAAAAPLMVAGNTLTMQSQAPLTVHDSKLSIATQGPLTVSEGKLALQTSGPLTTTDSSTLTITASPPLTTATGSLGIDLKEPIYTQNGKLGLKYGAPLHVTDDLNTLTVATGPGVTINNTSLQTKVTGALGFDSQGNMQLNVAGGLRIDSQNRRLILDVSYPFDAQNQLNLRLGQGPLFINSAHNLDINYNKGLYLFTASNNSKKLEVNLSTAKGLMFDATAIAINAGDGLEFGSPNAPNTNPLKTKIGHGLEFDSNKAMVPKLGTGLSFDSTGAITVGNKNNDKLTLWTTPAPSPNCRLNAEKDAKLTLVLTKCGSQILATVSVLAVKGSLAPISGTVQSAHLIIRFDENGVLLNNSFLDPEYWNFRNGDLTEGTAYTNAVGFMPNLSAYPKSHTAKSNIVSQVYLNGDKTKPVTLTITLNQETGDTTPSAYSMSFSWDWSGHNYINEIFATSSYTFSYIAQE
B2: wildtype Ad5 fiber protein (other)
chain: MKRARPSEDTFNPVYPYDTETGPPTVPFLTPPFVSPNGFQESPPGVLSLRLSEPLVTSNGMLALKMGNGLSLDEAGNLTSQNVTTVSPPLKKTKSNINLEISAPLTVTSEALTVAAAAPLMVAGNTLTMQSQAPLTVHDSKLSIATQGPLTVSEGKLALQTSGPLTTTDSSTLTITASPPLTTATGSLGIDLKEPIYTQNGKLGLKYGAPLHVTDDLNTLTVATGPGVTINNTSLQTKVTGALGFDSQGNMQLNVAGGLRIDSQNRRLILDVSYPFDAQNQLNLRLGQGPLFINSAHNLDINYNKGLYLFTASNNSKKLEVNLSTAKGLMFDATAIAINAGDGLEFGSPNAPNTNPLKTKIGHGLEFDSNKAMVPKLGTGLSFDSTGAITVGNKNNDKLTLWTTPAPSPNCRLNAEKDAKLTLVLTKCGSQILATVSVLAVKGSLAPISGTVQSAHLIIRFDENGVLLNNSFLDPEYWNFRNGDLTEGTAYTNAVGFMPNLSAYPKSHGKTAKSNIVSQVYLNGDKTKPVTLTITLNGTQETGDTTPSAYSMSFSWDWSGHNYINEIFATSSYTFSYIAQE

Assays:
[1] = biological target: coxsackie adenovirus receptor (CAR), human, on HeLa cells (human) (UniProt P78310); assay: cell-based or functional assay
[2] = biological target: T1, coxsackie adenovirus receptor (CAR), …; assay: cell-based or functional assay

Molecule | Mean % wt βgal activity, transduction of Hela cells [1] [% wt] | Representative avg βgal activity (RLU/ug protein), transduction of Hela cells at 1000 particles per cell (RLU/ug protein) [1] | fold reduction of β-galactosidase activity against wildtype fiber, Hela cells [1] [fold] | fold reduction in fiber-mediated gene transfer, Hela cells [1] [fold] | decrease in transduction efficiency, Hela cells [1] [fold] | Mean % wt βgal activity, transduction of Hela cells [2] [% wt]
KO1 mutant Ad5 fiber protein (S408E, P409A) (from UniProt P11818 1-581) | 1.4 | 7620 | 70 | – | – | –
KO1+2 mutant Ad5 fiber protein (S408E, P409A, ΔV441, K442) (from UniProt P11818 1-581) | 0.1 | 472 | 1000 | 1000 | – | –
KO2 mutant Ad5 fiber protein (ΔV441, K442) (from UniProt P11818 1-581) | 0.6 | 3320 | 167 | – | > 160 | –
KO2a mutant Ad5 fiber protein (ΔV441) (from UniProt P11818 1-581) | 0.6 | 4000 | 167 | – | > 160 | –
KO2b mutant Ad5 fiber protein (ΔK442) (from UniProt P11818 1-581) | 8.3 | 44400 | – | – | – | –
KO2c mutant Ad5 fiber protein (V441A, K442A) (from UniProt P11818 1-581) | 8.5 | 53300 | – | 12 | – | –
KO3 mutant Ad5 fiber protein (R460E) (from UniProt P11818 1-581) | 63.3 | 359000 | – | – | – | –
KO4 mutant Ad5 fiber protein (ΔG509, K510) (from UniProt P11818 1-581) | 38.2 | 213000 | – | – | – | –
KO5 mutant Ad5 fiber protein (ΔG538, T539) (from UniProt P11818 1-581) | 58.3 | 331000 | – | – | – | –
KO8 mutant Ad5 fiber protein (N464T) (from UniProt P11818 1-581) | 92.6 | 470000 | – | – | – | –
KO9 mutant Ad5 fiber protein (V466H) (from UniProt P11818 1-581) | 80.9 | 391000 | – | – | – | –
KO10 mutant Ad5 fiber protein (P505A) (from UniProt P11818 1-581) | 79.6 | 447000 | – | – | – | –
KO11 mutant Ad5 fiber protein (Δ404-581, knob replaced by GCN4 isoleucine 31 amino acid peptide) (from UniProt P11818 1-403) | 0.8 | 4520 | 125 | – | – | –
B1 | – | – | – | – | – | 91.1
B2 | – | – | – | – | – | 100
